Data taken from US20090311710A1, “MUTAGENESIS METHODS USING RIBAVIRIN AND/OR RNA REPLICASES” (priority 2002, published 2009).

System: TEM-1 Θ-lactamase (bla) gene expressed in bacteria
Experiment: Cefotaxime resistance (MIC) conferred by mutant bla clones
Type: cell-based
Conditions: bla clone expressed in bacteria; listed as wild-type bla gene
Excerpt: T7 RNA polymerase with the addition of 1000TM ribavirin 5′ triphosphate (dTRV) was used to transcribe (−) RNA from the bla gene θ-lactamase gene for antibiotic resistance) on plasmid pEGX205. The bla RNA was subsequently converted to cDNA using M-MuLV-reverse transcriptase, amplified with Pfu DNA polymerase, cut with appropriate restriction enzymes, and cloned into the plasmid pEGX212. Clones resistant to increased concentrations of cefotaxime were selected and sequenced (the minimum inhibitory concentration [MIC] for the wild-type bla gene was 0.02 ug/ml). […] When clone CefR E1 RNA was taken through a second round of T7 polymerase/dTRV mutagenesis, 3 clones containing 3 or more mutations were selected with one clone (F-E1-1) showing a 10,000-fold increase in cefotaxime resistance over the wild-type. No resistant mutants were isolated in the mutation/selection experiments that used T7 polymerase alone.

B1: Wild-type: wild-type TEM-1 β-lactamase (bla) gene for antibiotic resistance (protein, UniProt P62593 24-286, looked up)
Beta-lactamase TEM: HPETLVKVKDAEDQLGARVGYIELDLNSGKILESFRPEERFPMMSTFKVLLCGAVLSRVDAGQEQLGRRIHYSQNDLVEYSPVTEKHLTDGMTVRELCSAAITMSDNTAANLLLTTIGGPKELTAFLHNMGDHVTRLDRWEPELNEAIPNDERDTTMPAAMATTLRKLLTGELLTLASRQQLIDWMEADKVAGPLLRSALPAGWFIADKSGAGERGSRGIIAALGPDGKPSRIVVIYTTGSQATMDERNRQIAEIGASLIKHW
- cefotaxime minimum inhibitory concentration (MIC): 0.02 µg/mL
